Reference: the supplement of paper PMC10567573

B1: C8orf76 (parent)
chain: KLAEAYLNLGPALSAALASSQKQH
B2: CROP (parent)
chain: VFGRGDNISDVSKFLEDDKWMEE

Variants of: B1
Assay: protein stability index of a GFP-peptide fusion (GPS, HEK-293T) (PSI 1-6); higher = more stable
Conditions: c terminus: a fixed tail appended
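Further: lentivirally expressed fusions sorted by FACS into six bins by GFP to DsRed ratio, PSI derived from sequencing read proportions per bin multiplied by bin number.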

Protein stability index, by site and new letter:
G10: N 2.08

Variants of: B2
Assay: as above
Conditions: c terminus: native

Protein stability index: each site, then its substitutions
D6: L 2.91 | G 2.08 | R 2.16 | K 2.01 | P 2.32 | E 2.42 | Q 2.4 | I 2.48 | V 2.96 | H 1.85 | W 4.02 | S 2.15
N7: A 1.68 | G 1.77 | H 2.12 | Y 1.97 | I 2.21 | L 1.42 | D 2.89 | R 2.61 | Q 1.79 | C 2.37 | V 1.53 | P 1.35 | E 1.4 | S 1.41 | T 1.89 | M 1.64
F14: P 4.07 | E 4.92 | W 1.96 | Y 2.03 | D 3.96 | G 2.58 | V 3.01 | I 3.83 | N 3.54 | Q 3.34 | A 4.31 | S 4.16 | T 4.42 | K 4.08 | M 2.42 | R 3.29 | L 2.43 | H 4.16 | C 3.8
E16: L 2.72 | V 2.59 | H 1.79 | I 1.65 | N 3.11 | M 1.1 | T 1.66 | F 2.42 | K 1.97 | G 2.4 | P 2.12 | C 1.46 | A 2.44 | Q 1.95 | S 2.03
D10: N 2.04 | G 2.11 | A 1.99 | K 1.99 | R 1.55 | T 2.74 | V 2.63 | P 1.69 | S 2.09 | E 2.1 | H 3.06 | M 2.75 | I 1.99
S12: A 1.4 | N 2 | V 1.86 | I 2.32 | K 2.2 | G 1.41 | Y 1.74 | P 1.61 | C 1.73 | F 2.33 | H 2.31 | R 1.92 | Q 2.19 | T 2.67 | E 2.56 | D 2
W20: H 4.34 | V 3.81 | L 2.54 | M 3.12 | C 4.08 | F 4.18 | R 3.94 | G 3.92 | T 4.17 | S 4.28 | E 4.25 | Q 3.4 | N 4.72 | K 3.78 | A 4.2 | I 3.97 | D 4.04 | Y 3.39
L15: K 3.01 | H 3.35 | M 2.06 | E 3.77 | S 2.28 | C 2.64 | P 2.81 | W 2.1 | I 1.93 | N 3.32 | F 1.06 | R 2.91 | T 3.47 | A 3.09 | D 1.85 | G 2.8 | Q 3.7 | V 1.94 | Y 2.21
G3: W 2.36 | T 2.07 | V 1.51 | S 1.82 | R 2.1 | Q 2.11
R4: N 2.1 | P 1.51 | W 1.39 | A 2.43 | K 2.41 | Q 1.99 | T 2.3 | M 2.77 | S 2.33 | Y 2.31 | V 1.9 | H 2.19 | C 2.66 | I 1.95 | L 1.98 | F 2.19 | D 2.4 | E 2.42 | G 2.16
M21: C 3.53 | H 2.25 | N 1.43 | P 1.38 | D 4.49 | Y 2.28 | G 4.04 | V 1.87 | Q 2.94 | T 2.51 | W 1.97 | E 4 | S 2.52 | F 2.28 | A 1.86 | I 1.27
I8: F 2 | C 2.81 | T 2.62 | R 2.92 | M 2.05 | E 2.9 | G 3.51 | A 2.35 | N 1.44 | Q 2.07 | S 2.48 | D 1.89 | L 2.11 | Y 1.74 | K 2.23 | H 1.93 | P 2.03
K19: G 1.95 | I 2.28 | Y 2.22 | D 2.63 | M 1.21 | R 2.5 | P 3.01 | A 1.27 | F 3.11 | E 3.41 | L 1.89 | V 2.27 | C 1.62 | N 2.35 | H 1.91 | W 1.75 | S 3.53 | T 1.92
V11: G 2.11 | P 3.27 | Q 2.87 | S 2.71 | L 1.61 | R 2.12 | E 2.39 | Y 1.38 | A 2.4 | M 2.95 | T 1.49 | W 2.43 | K 2.6 | C 2.35 | N 2.33 | I 2.39 | F 2.15 | H 2.43
G5: K 3.07 | P 2.54 | W 2.02 | C 2.27 | A 2.03 | I 2.77 | M 1.14 | S 3.13 | Y 1.32 | V 1.61 | Q 2.3 | F 1.88 | T 2.63 | D 2.29 | N 3.26 | L 2.16 | R 1.74
E23: V 4.08 | C 4.1 | D 5 | N 4.41 | F 3.61 | Q 4.37 | L 3.54 | H 4.53 | M 4.68 | R 4.6 | T 4.08 | Y 3.76 | S 4.6 | P 3.67 | K 4.76 | I 4.38 | A 4.36
D18: C 1.47 | Q 2.98 | S 1.31 | G 2.06 | V 1.77 | L 1.97 | N 2.44 | W 2.04 | F 1.66 | T 1.78 | K 2.69 | H 1.49 | P 3.66 | A 1.3
E22: H 4.54 | Q 3.96 | M 4.28 | A 4.23 | F 3.47 | C 4.69 | L 4.07 | S 4.51 | D 4.23 | I 3.81 | Y 3.73 | K 4.73 | V 4.25 | T 4.94 | N 4.31 | W 3.33 | R 3.32 | P 4.33
S9: M 2.47 | Q 2.41 | D 2.12 | H 2.25 | T 2.43 | E 2.44 | L 3.1 | P 3.03 | Y 2.3 | K 1.62 | V 2.11 | A 2.31 | N 1.78 | G 2.06 | F 1.63 | I 1.97
K13: C 1.74 | V 1.54 | N 1.91 | S 2.65 | E 2.41 | D 2.83 | G 2.02 | M 2.69 | F 2.04 | T 1.72 | I 2.69 | A 2.29 | H 1.71 | R 1.89 | P 1.14
D17: K 2.83 | E 2.41 | Q 2 | R 2.25 | Y 2.73 | H 1.34 | F 3.45 | L 1.29 | T 2.04 | V 1 | N 2.26 | A 2.29 | I 3.52 | S 1.52
